These are literature values, as cited in PMC4411102 (PLoS ONE, 2015).

This data set has as its system HIV. The source says:
HIV-1 infection can be targeted at various stages, for example, viral entry, viral replication or assembly of viral components. HIV entry into the host cells is facilitated by binding of viral envelope glycoprotein (gp120) to host CD4 receptor [3, 4]. CD4-gp120 interaction initiates a cascade of events that stimulates gp41 to promote viral and host membrane fusion. Inhibition of gp120-CD4 interaction or virus-host cell fusion thus appears to be an attractive strategy to prevent HIV-1 infection. Towards this, significant advances have been made. […] Moreover, some of the AMPs cause adverse effects on vaginal commensals like lactobacilli which are required to maintain low pH in vaginal mucosa.

B1: secretory leucocyte protease inhibitor (SLPI): natural antimicrobial peptide (protein, UniProt P03973 26-132, looked up)
Antileukoproteinase: SGKSFKAGVCPPKKSAQCLRYKKPECQSDWQCPGKKRCCPDTCGIKCLDPVDTPNPTRRKPGKCPVTYGQCLMLNPPNFCEMDGQCKRDLKCCMGMCGKSCVSPVKA
Regarding B1, the Anti-HIV activity result is “reported to have anti-HIV activity”.

B2: human defensin-5: antimicrobial peptide (peptide, UniProt Q01523 20-94, looked up)
Defensin alpha 5: ESLQERADEATTQKQSGEDNQDLAISFAGNGLSALRTSGSQARATCYCRTGRCATRESLSGVCEISGRLYRLCCR
modifications: Defensin-5
notes: antimicrobial peptide
As for B2, the “Effect on HIV infection” value is “exacerbate HIV infection”.
